For the experiment, the target named is recombinant Ku70 (human) (UniProt P12956). In words: not stated; complex of recombinant Ku70 and IN; method of the Kd not told.

We go through one substance from article PMC5046194.

Chain of UniProt P12956 (P12956 whole entry): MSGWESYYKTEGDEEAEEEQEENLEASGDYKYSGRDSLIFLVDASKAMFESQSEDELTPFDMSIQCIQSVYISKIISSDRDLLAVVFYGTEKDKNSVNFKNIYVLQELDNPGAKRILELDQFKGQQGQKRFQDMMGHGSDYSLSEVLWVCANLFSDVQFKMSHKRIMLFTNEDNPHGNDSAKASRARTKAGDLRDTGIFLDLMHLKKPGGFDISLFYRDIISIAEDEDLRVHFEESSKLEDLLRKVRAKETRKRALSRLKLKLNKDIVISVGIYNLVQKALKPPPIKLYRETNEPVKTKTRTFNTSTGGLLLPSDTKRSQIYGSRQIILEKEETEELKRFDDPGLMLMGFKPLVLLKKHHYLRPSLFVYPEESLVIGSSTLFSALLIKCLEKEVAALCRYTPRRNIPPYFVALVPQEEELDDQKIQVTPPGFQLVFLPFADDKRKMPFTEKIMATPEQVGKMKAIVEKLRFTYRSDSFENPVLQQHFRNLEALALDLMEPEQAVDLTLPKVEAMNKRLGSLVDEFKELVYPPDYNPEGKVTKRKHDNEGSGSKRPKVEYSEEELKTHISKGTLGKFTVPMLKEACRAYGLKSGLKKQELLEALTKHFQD

For the substance “recombinant His6-IN, wild type (HIV-1 integrase, abstract P13) (enzyme)”, the Kd was found to be 70 nM.
